Data reported in the DeepSol protein solubility set.

Experiment: soluble on expression in E. coli; label from the status in PepcDB or PDB records

For “MGSDKIHHHHHHMTRNGIGIRTAQVRSERLTGQIHVYDGVGKGKSQAALGVVLRSIGLGINAPNNSNRVLLLRFLKGPERDYDEDGAIAALQRGFPHLIDQVRTGRAEFFGPEEITTFDRSEAGRGWDVAKGAIASGLYSVVVLDEINPVLDLGLLSVDEVVGTLKSKPQELEIIATGRGAPQKLLDIADLHSEMKPLHHPKATELLMKGIEIYTGAGKGKSTSALGKALQAIGRGINHPGSTRVLIMQWLKGGSGYTEDAAIAALRQSYPEVVDHQRCGRDAIVWRNSRQELDYVEAERGWEIAKVAIASGLYKTIILDELNPTVDLELLPVEPIVQALLRKPRDTEIIITGRCQNQPAYFDLASIHSEVYCHKHYANQGVELKRGVDF”, which “soluble on expression in E. coli” value is on record?
The value was “not soluble”.

For “MRPRRSLLSVPAINIRALEKIRELDCDGVILDLEDSVAPDMKGKARENLEKLFSGPPFDGRETIIRINPLSTPDGKADLQLVLSCRPDAVLLPKVEQPSDIHDVADFLAEADAPEHLKIWAMIETPLGVLNAASIADAAHTPNARLAAFVIGLNDLRKETHVPRLPGRTYLVPWMMQVILAARAYGLDVIDSVSNDFRDIEAFEAECEQGRAMGFDGKMLIHPAQIEAANRHFGPDEATLAEARAIIAAFAKPESVELNIINMNGQMIERLHVGQAERLVAMADIIAQRKAKKT”, which “soluble on expression in E. coli” value is on record?
The value was “not soluble”.

With “MSLATEIVENMFCVNAPAGSGKTTKIKSMIVNHKIKHPIDNILCITYTKRAAEELNKDFNEEGIHISTIHSFLHKFLKIYFCKTEMKDLYFEMFEDLIKESIENKEEKEHIVTRNQKYIEKHGCLSVESIKANIDAIYYNESSNNHLYTGGLAHDSLLLFAEKVFDKFPKIKMRLTQKYQSIFIDEYQDSAASVLRMFYKACLNTKSNLYFLGDKMQQIYKNYDGSFEEELKTLNTDIKLDINHRSIPDIVSVLNNIYNDKGFKQNPSKKNLDIKPDHPPRIIMCDNIQERLKRECSIYPDALLLFLLNQQKFASIGARELYKQFSHLERYSHAKQLSATDVLSDNTSENTDPLLKLLFIVGEVVDYYKKSNVGSIIQIFKANRKLFDMGIGTITSHRDRIDLTKLLKQLYEDYHKEISISEFLTLLRGCNEGHHHHHH” as the sequence, how does the “soluble on expression in E. coli” value read?
Its value is “not soluble”.

Which “soluble on expression in E. coli” value does the source give for “VIESMSDGYIVVDTSNSIVDVNRAVLELAGKTRKEVLGKNLTYLFGEGVELLCHTPEGDFGREISLKSGSEIKFFTVSVSPLMARNEPEGKLIMIHDIT” here?
Its value is “not soluble”.

With “MGSDKIHHHHHHMTDRSAVPVDSPAGSTRTVILEKALELFAETGFNGVSMRRIAQEVGINPATLYHHFVHKEDLYEQVLRFAYAEQAAHFSALVSIEGTPQSQLGEFIREFAFYIAKDQHFFRLVKREQLEGNSERLKMLVDLLFGKQYEAMVRSVGRVTQAFDTHMLVTSLLGLVLHHYETRHMRQFFVEYMPSQDDPEVVADHCCRLFFFGIQGAGAAQEVPYRSEQSLLSADGEHSRDGAG” as the sequence, how does the “soluble on expression in E. coli” value read?
Its value is “not soluble”.

For “MGSDKIHHHHHHDDTLTSGTITIAVDETFRPIIEEELQVFYALTPDATVHPIYCSEVEAMKLLLADSVRLAITTRQLTRQETAYLNDKKFFPVSVKMATDGLALIVNKQNTDSLITVDQFKEILTGKVTDWKQLNPASRLGELQLVFDNPNSSTVHYVLDSICGGMPLSKDLKAQKTNPEVISYVAKNPAALGVIGVNWIGNPADSTRLSFNDVIRIMAVSRADSATVGNSFKPYQAYLALNQYPLTRNVYILLNDPKSGLPSGLTSFLTDFRGQRIILKSGLVPATAAVRIVDVKEE”, which “soluble on expression in E. coli” value is on record?
Its value is “not soluble”.

With “MAHHHHHHMRKAVRALQRRASQQAREVAVAANDMDGETATTQRPSFSLFWVQLTQAKVDVVLPPAQPPTPSAEVEAEEESETAERAAHAGHGGSRDTASAHTAAQFRRVHDTNRRVLRIIEACPDETLIVVLAGRCDGEAGGNHFSRAQGTCFAFVKDSSAPGPRPEELTKLTDENNVSALPRASAGGAAVDNIPLQDASALSTAAVPHSVDRETAMVEHTPLACQQQ” as the sequence, how does the “soluble on expression in E. coli” value read?
The value was “soluble”.

With “MGSDKIHHHHHHMIIMRFLIKVKPEERKFRVPYNHQYFLQGLIYNRIKLTNPRLSTFLHETKGPKLFTYSLFMTERREHPKGLPYFLGYRRGFFYFSTCIPEIAEAFITGLFREPEITLWGEKFYLEEVKTLKEPKKFSGSTFITLSPIAVTMEKGGKRYDVSPLEEEFYALIRENLKDKYVMIKGEKPPDDFEMEIIAAKPKRFEVKPGIYQMAWHLVFRAYGDDELIRVGYVVGFGEKNSLGFGMVKVDEQRKRRKNIGSFQESMSFNENRELETGT” as the sequence, how does the “soluble on expression in E. coli” value read?
Its value is “not soluble”.

For “SLPKLHMFYLGGNAGRSNIEVHDIQFAVCDDYREAVPALKAAWFGDADKIHIDGWQVVEWADGYDIAVSETPKTKMPSENAPRLYFANVGGYRAGQLAEAHAFGLFAAATPAEAKQKALQTLLTDSYVQQHKDNLKDVDNLLALDRIGNFHIRLTPNPHGKPAEIGFQGYLPI”, which “soluble on expression in E. coli” value is on record?
The value was “soluble”.
